In paper doi:10.1101/2020.07.13.201285 (bioRxiv, 2020):

Target: the molecule itself
Assay: cross-linking

B1: recombinant human glutamine:fructose-6-phosphate amidotransferase 2 with C-terminal HisTag (rhGFAT2-his) (enzyme, UniProt O94808 2-682, looked up)
chain: CGIFAYMNYRVPRTRKEIFETLIKGLQRLEYRGYDSAGVAIDGNNHEVKERHIQLVKKRGKVKALDEELYKQDSMDLKVEFETHFGIAHTRWATHGVPSAVNSHPQRSDKGNEFVVIHNGIITNYKDLRKFLESKGYEFESETDTETIAKLIKYVFDNRETEDITFSTLVERVIQQLEGAFALVFKSVHYPGEAVATRRGSPLLIGVRSKYKLSTEQIPILYRTCTLENVKNICKTRMKRLDSSACLHAVGDKAVEFFFASDASAIIEHTNRVIFLEDDDIAAVADGKLSIHRVKRSASDDPSRAIQTLQMELQQIMKGNFSAFMQKEIFEQPESVFNTMRGRVNFETNTVLLGGLKDHLKEIRRCRRLIVIGCGTSYHAAVATRQVLEELTELPVMVELASDFLDRNTPVFRDDVCFFISQSGETADTLLALRYCKDRGALTVGVTNTVGSSISRETDCGVHINAGPEIGVASTKAYTSQFISLVMFGLMMSEDRISLQNRRQEIIRGLRSLPELIKEVLSLEEKIHDLALELYTQRSLLVMGRGYNYATCLEGALKIKEITYMHSEGILAGELKHGPLALIDKQMPVIMVIMKDPCFAKCQNALQQVTARQGRPIILCSKDDTESSKFAYKTIELPHTVDCLQGILSVIPLQLLSFHLAVLRGYDVDFPRNLAKSVTVE
Q: For B1, which “stoichiometry N” value is on record?
A: 4
